# Experimental data published in patent US20250115676A1.
# Positions count from the first letter of the chain named.
# B1: hMAB-A (2.3) (antibody, V domains shown)
# VH: EVQLVESGGGLVKPGGSLRLSCAASGFTFSSYWMHWVRQAPGKGLEWVGEIIPIFGHTNYNEKFKSRFTISLDNSKNTLYLQMGSLRAEDTAVYYCARGGYYYYGSRDYFDYWGQGTTVTVSS
# VL: DIVMTQSPDSLAVSLGERATISCRASQSVDYSGDSYMNWYQQKPGQPPKLLIYAASDLESGIPARFSGSGSGTDFTLTISSLEPEDFATYYCQQSHEDPFTFGQGTKLEIK
# B2: hMAB-A (3.3) (antibody, V domains shown)
# VH: B1 VH with K63R, K65Q, S66G
# VL: B1 VL
# B3: hMAB-A (2.2) (antibody, V domains shown)
# VH: B1 VH
# VL: B1 VL with R24K
# B4: hMAB-A (2I.2) (antibody, V domains shown)
# VH: B1 VH with G105P, S106R, R107Q, D108G, Y109F, F110L
# VL: B1 VL with R24K
# B5: hMAB-A (2B.2) (antibody, V domains shown)
# VH: B1 VH with G105I, S106G, R107K, D108G, Y109V, F110L
# VL: B1 VL with R24K
# B6: hMAB-A (2D.2) (antibody, V domains shown)
# VH: B1 VH with G105T, S106G, R107K, D108G, Y109V, F110L
# VL: B1 VL with R24K
# B7: hMAB-A (2C.2) (antibody, V domains shown)
# VH: B1 VH with G105P, S106R, R107F, D108G, Y109W, F110L
# VL: B1 VL with R24K
# B8: hMAB-A (4.4) (antibody, V domains shown)
# VH: B1 VH with M34I, K63R, K65Q, S66G
# VL: B1 VL with M37L, H96Y, E97S, D98T
# B9: hMAB-A (1.1) (antibody, V domains shown)
# VH: B1 VH with F55N
# VL: B1 VL with R24K, S32D
# B10: chMAB-A (antibody, V domains shown)
# VH: QVQLQQPGAELVKPGASVKLSCKASGYTFTSYWMHWVKQRPGQGLEWIGEIIPINGHTNYNEKFKSKATLTLDKSSSTAYMQLSSLASEDSAVYYCARGGYYYYGSRDYFDYWGQGTTLTVSS
# VL: DIVLTQSPASLAVSLGQRATISCKASQSVDYDGDSYMNWYQQIPGQPPKLLIYAASDLESGIPARFSGSGSGTDFTLNIHPVEEEDAATYYCQQSHEDPFTFGGGTKLEIK
# Target: shADAM9-His (His-tagged soluble human ADAM9) (human) (UniProt Q13443)
# Assay: binding affinity study (BIACORE, Table 7); reference not named
row,fold increase in affinity,Binder
1,2 fold,B1
2,2 fold,B2
3,2 fold,B3

# Target: shADAM9-His (His-tagged soluble human ADAM9) (human) (UniProt Q13443)
# Assay: BIACORE SPR; antibody captured, huADAM9-His as analyte
Kd,koff,kon,Binder
0.4 nM,0.00023 s⁻¹,660000 M⁻¹ s⁻¹,B4
0.6 nM,0.00039 s⁻¹,610000 M⁻¹ s⁻¹,B5
0.8 nM,0.00058 s⁻¹,690000 M⁻¹ s⁻¹,B6
0.6 nM,0.00055 s⁻¹,900000 M⁻¹ s⁻¹,B3
1.4 nM,0.00081 s⁻¹,590000 M⁻¹ s⁻¹,B7

# Target: shADAM9-His (His-tagged soluble human ADAM9) (human) (UniProt Q13443)
# Assay: BIACORE SPR; antibody captured on Fab2 goat anti-human Fc surface, shADAM9-His 6.25-100 nM as analyte; 1:1 Langmuir
row,Kd,Binder
1,1.3 nM,B1
2,1.4 nM,B2
3,2 nM,B8
4,1.4 nM,B3
5,3.5 nM,B9
6,3.6 nM,B10
